Assays:
[1] = molecular target: T1, TROP2 on NCI-H1975 and NUGC-4 tumor cells (UniProt P09758 27-323, limits assumed); test: flow cytometry on NCI-H1975 cells co-expressing PTK7 and TROP2; the single curve of the bispecific is not resolved between the two targets; anti-hIgG-Fc Alexa Fluor 647 secondary antibody, MFI [A]
T1 construct: whole, on cells; species of the lines is not worded there; also called TROP2 on cells
T1 sequence (looked up): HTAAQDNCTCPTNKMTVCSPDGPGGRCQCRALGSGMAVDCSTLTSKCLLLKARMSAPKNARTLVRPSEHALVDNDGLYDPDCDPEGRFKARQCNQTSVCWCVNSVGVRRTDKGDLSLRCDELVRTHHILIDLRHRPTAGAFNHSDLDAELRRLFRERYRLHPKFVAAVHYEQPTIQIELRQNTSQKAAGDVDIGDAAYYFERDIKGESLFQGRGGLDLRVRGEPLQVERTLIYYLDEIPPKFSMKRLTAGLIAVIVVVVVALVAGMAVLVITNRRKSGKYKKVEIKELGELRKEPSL
Description: (§1) This experiment was performed to test the binding activities of the anti-PTK7/TROP2 bispecific antibodies to different tumor cell lines. NCI-H1975 cells or NUGC-4 cells were transferred to a 96-well plate at a density of 5×10⁴ cells/well respectively. The sample antibody was added to the 96-well plate, and incubated at 4° C. for 30 min.

[2] = molecular target: T2, human PTK7 on human cancer cell lines (human, UniProt Q13308 31-1070); test: as above
T2 construct: Endogenous PTK7 of human tumour cell lines; also called PTK7 on A-431, NCI-H520, NCI-N87, SK-OV-3, BT-20, HCC1954, NCI-H226, NCI-H358, HCT116, PC-3, NCI-H292, NCI-H1975 cells
T2 sequence: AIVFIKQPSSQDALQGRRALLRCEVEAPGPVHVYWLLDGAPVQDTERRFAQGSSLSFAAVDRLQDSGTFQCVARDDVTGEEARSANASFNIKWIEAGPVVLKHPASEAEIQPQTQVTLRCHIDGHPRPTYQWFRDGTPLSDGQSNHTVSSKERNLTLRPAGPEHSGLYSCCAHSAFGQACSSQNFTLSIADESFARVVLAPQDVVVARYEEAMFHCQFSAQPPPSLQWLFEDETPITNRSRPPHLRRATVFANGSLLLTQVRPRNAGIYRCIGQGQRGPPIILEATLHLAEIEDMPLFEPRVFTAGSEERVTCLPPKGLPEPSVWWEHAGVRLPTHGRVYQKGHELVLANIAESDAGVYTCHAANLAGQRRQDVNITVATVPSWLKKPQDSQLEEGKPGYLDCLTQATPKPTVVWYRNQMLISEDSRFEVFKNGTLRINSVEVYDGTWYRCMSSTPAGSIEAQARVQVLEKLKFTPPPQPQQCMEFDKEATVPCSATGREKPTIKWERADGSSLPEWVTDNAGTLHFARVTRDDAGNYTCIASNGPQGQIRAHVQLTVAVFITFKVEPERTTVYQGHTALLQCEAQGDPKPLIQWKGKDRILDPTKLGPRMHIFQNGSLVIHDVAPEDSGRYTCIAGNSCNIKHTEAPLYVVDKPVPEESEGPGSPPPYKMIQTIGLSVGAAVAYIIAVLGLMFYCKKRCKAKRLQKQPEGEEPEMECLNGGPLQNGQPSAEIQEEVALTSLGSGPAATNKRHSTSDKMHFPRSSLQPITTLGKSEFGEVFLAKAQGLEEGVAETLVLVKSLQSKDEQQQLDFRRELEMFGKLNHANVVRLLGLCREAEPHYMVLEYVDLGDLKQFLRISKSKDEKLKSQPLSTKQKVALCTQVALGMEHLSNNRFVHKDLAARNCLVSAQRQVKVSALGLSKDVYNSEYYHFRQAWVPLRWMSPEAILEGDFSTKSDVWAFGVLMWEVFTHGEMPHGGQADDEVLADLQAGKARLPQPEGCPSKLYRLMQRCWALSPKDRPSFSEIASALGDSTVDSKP
Description: as §1

EC50 (read off the curve) [1]: ~0.7 µg/mL | EC50 (read off the curve) [2]: ~0.7 µg/mL
B1: 3C4-18E9 (bispecific antibody, human IgG1, V domains shown)
VH 1: QVQLEQSRAEVKKPGESLRISCKGSGYSFTSYWISWVRQMPGKGLEWMGRIDPSDSYTNYNPSFQGHVTISADKSISTAYLQWSSLKASDTAMYYCARRDGSYFDFDYWGQGTLVTVSS
VH 2: QLQLQQSGPGLLKPSETLSLTCTVSGGSISSSYYFWGWIRQPPGKGLEWIGAIYYIGNTHYNPSLKSRVTISIDTSKNQFSLNLNSVTAADTAIYYCARYEDTWNWFDPWGQGTLVTVSS
VL: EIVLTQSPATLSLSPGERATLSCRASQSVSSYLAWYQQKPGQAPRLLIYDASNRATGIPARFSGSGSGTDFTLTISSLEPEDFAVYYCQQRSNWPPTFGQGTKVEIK
notes: which arm carries the knob is stated only for 3C4-6F7; also called anti-PTK7/TROP2 bispecific antibody 3C4-18E9
